The source of these data is US20240252606A1 (CHANGCHUN BCHT BIOTECHNOLOGY, published 2024).

This data set deals with the molecule itself. The data set can be described thus: native gel electrophoresis, self-assembly.

B1: cysteine-modified norovirus capsid P protein PP-3C (other)
chain: MGKPFSVPILTVEEMTNSRFPIPLEKLFTGPSSAFVVQPQNGRCTTDGVLLGTTQLSPVNICTFRGDVTHIAGCQNYTMNLASQNWNNYDPTEEIPAPLGTPDFVGRIQGVLTQTTRRDGSTRGHKATVSTGSVHFTPKLGSVQFSTDTCNDFETGQNTRFTPVGVVQDCSTTHQNEPQQWVLPDYSGRDSHNVHLAPAVAPTFPGEQLLFFRSTMPGCSGYPNMNLDCLLPQEWVQHFYQESAPAQSDVALLRFVNPDTGRVLFECKLHKSGYVTVAHTGQHDLVIPPNGYFRFDSWVNQFYTLAPMGNGAGRRRAL
notes: self-assembles into dodecamers and tetracosamers
Regarding B1, the binding result is given as “binds”.

B2: lysine-modified norovirus capsid P protein PP-3K (other)
chain: MGKPFSVPILTVEEMTNSRFPIPLEKLFTGPSSAFVVQPQNGRCTTDGVLLGTTQLSPVNICTFRGDVTHIAGKTQNYTMNLASQNWNNYDPTEEIPAPLGTPDFVGRIQGVLTQTTRRDGSTRGHKATVSTGSVHFTPKLGSVQFSTDTSKNDFETGQNTRFTPVGVVQDGKSTTHQNEPQQWVLPDYSGRDSHNVHLAPAVAPTFPGEQLLFFRSTMPGCSGYPNMNLDCLLPQEWVQHFYQESAPAQSDVALLRFVNPDTGRVLFECKLHKSGYVTVAHTGQHDLVIPPNGYFRFDSWVNQFYTLAPMGNGAGRRRAL
notes: as for B1
On to B2, for which the binding result is “binds”.
